Source: patent publication US20090130104A1

Target: murine PECAM-1 on cells (bEND3 endothelial cells; REN cells transfected with full-length mouse PECAM) (mouse) (UniProt Q08481)
Test: flow cytometry on CD31 positive bEND3 endothelial cells

murine PECAM-1 on cells (bEND3 endothelial cells; REN cells transfected with full-length mouse PECAM) (mouse), sequence (Q08481 18-727): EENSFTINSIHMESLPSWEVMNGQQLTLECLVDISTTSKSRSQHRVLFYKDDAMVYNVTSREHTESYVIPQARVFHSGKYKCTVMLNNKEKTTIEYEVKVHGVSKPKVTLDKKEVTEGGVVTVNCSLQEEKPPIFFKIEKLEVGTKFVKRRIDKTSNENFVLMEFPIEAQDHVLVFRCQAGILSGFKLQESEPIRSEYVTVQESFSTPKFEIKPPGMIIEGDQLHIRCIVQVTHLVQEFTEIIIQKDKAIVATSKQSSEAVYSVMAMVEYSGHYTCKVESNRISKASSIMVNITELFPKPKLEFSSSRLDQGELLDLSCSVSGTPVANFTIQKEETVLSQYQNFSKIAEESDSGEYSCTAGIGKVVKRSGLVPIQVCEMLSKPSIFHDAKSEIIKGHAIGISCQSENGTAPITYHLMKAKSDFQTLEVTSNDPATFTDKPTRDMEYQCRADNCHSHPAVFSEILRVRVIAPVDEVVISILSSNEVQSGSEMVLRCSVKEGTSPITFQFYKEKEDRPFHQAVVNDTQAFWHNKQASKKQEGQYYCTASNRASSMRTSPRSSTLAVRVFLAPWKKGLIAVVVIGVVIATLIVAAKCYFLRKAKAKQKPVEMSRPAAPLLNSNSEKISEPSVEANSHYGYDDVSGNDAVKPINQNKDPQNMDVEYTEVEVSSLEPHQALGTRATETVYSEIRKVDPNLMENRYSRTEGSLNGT

Substance: anti-PECAM scFv (from antibody 390) tagged with soluble tissue factor (sTF)
- half-maximal binding: 50 nM
